Values quoted from earlier work as cited in paper PMC6399403.
Where two headings read alike, the source gives them in different places.

Columns and labels:
CD155 (Homo sapiens) [1] = biological target: CD155 (Homo sapiens) (UniProt P15151)
CD155 (Homo sapiens) [2] = biological target: CD155 (Homo sapiens) (UniProt P15151); remark: listed apart in the source

UniProt P15151, sequence (P15151 21-343): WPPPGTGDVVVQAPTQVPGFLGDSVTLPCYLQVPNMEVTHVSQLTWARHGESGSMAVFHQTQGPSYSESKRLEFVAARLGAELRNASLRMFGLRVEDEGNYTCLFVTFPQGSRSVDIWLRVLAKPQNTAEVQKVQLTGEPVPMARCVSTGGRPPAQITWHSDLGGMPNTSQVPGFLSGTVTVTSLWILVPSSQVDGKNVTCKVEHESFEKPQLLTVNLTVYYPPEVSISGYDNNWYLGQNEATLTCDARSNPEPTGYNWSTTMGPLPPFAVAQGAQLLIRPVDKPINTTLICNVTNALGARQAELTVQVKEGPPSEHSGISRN

| Substance | Kd (CD155 (Homo sapiens) [1]) | Kd (CD155 (Homo sapiens) [2]) |
| --- | --- | --- |
| CD226 (from UniProt Q15762) | 0.1 µM |  |
| TIGIT (from UniProt Q495A1) |  | 0.001 µM |
